Data as given in patent publication US20240209334A1, “SMALL-MOLECULE-ACTIVATED GLYCAN MODIFYING ENZYMES AND USES THEREOF” (President and Fellows of Harvard College, priority 2022, published 2024).

B1: OGA-intein(C181): miniOGA with the 4-HT-responsive evolved intein inserted at C181 (protein)
chain: MEQKLISEEDLAIAMVQKESQATLEERESELSSNPAASAGASLEPPAAPAPGEDNPAGAGGAAVAGAAGGARRFLCGVVEGFYGRPWVMEQRKELFRRLQKWELNTYLYAPKDDYKHRMFWREMYSVEEAEQLMTLISAAREYEIEFIYAISPGLDITFSNPKEVSTLKRKLDQVSQFGCRSFALLFDDIDHNMCLAEGTRIFDPVTGTTHRIEDVVDGRKPIHVVAAAKDGTLLARPVVSWFDQGTRDVIGLRIAGGAIVWATPDHKVLTEYGWRAAGELRKGDRVAGPGGSGNSLALSLTADQMVSALLDAEPPILYSEYDPTSPFSEASMMGLLTNLADRELVHMINWAKRVPGFVDLTLHDQAHLLERAWLEILMIGLVWRSMEHPGKLLFAPNLLLDRNQGKCVEGMVEIFDMLLATSSRFRMMNLQGEEFVCLKSIILLNSGVYTFLSSTLKSLEEKDHIHRALDKITDTLIHLMAKAGLTLQQQHQRLAQLLLILSHIRHMSNKGMEHLYSMKYKNVVPLYDLLLEMLDAHRLHAGGSGASRVQAFADALDDKFLHDMLAEGLRYSVIREVLPTRRARTFDLEVEELHTLVAEGVVVHNCAADKEVFSSFAHAQVSITNEIYQYLGEPETFLFCPTEYCGTFCYPNVSQSPYLRTVGEKLLPGIEVLWTGPKVVSKEIPVESIEEVSKIIKRAPVIWDNIHANDYDQKRLFLGPYKGRSTELIPRLKGVLTNPNCEFEANYVAIHTLATWYKSNMNGVRKDVVMTDSEDSTVSIQIKLENEGSDEDIETDVLYSPQMALKLALTEWLQEFGVPHQYSSRGSGSGSGSGSGSGSGEKPLYTAEPVTLEDLQLLADLFYLPYEHGPKGAQMLREFQWLRANSSVVSVNCKGKDSEKIEEWRSRAAKFEEMCGLVMGMFTRLSNCANRTILYDMYSYVWDIKSIMSMVKSFVQWLGCRSHSSAQFLIGDQEPWAFRGGLAGEFQRLLPIDGANDLFFQPP

Assays:
[1] = tested on: O-GlcNAcylated proteins in HEK293T cells; assay: Quantitative proteomics after enrichment for O-GlcNAc; type: cell-based, Homo sapiens; settings: 25 μM OSMI-4b for 10 hours
Protocol: To further assess the spatial deglycosylation mediated by these subcellularly localized OGA-intein variants, quantitative proteomics was performed following enrichment for O-GlcNAc (38) on cell lysates after expression of C181-NLS with 4-HT treatment for 2 hours and 24 hours, respectively, or the OGT inhibitor OSMI-4b (3) for comparison (FIG. 4E and FIGS. 12A, 12B, 12C).
Chemoenzymatic labeling of O-GlcNAcylated proteins. Purification of GalT1 (Y289L) enzyme and labeling of O-GlcNAcylated proteins with GalNAz were performed according to the procedure of Hsich-Wilson and co-workers (51). Briefly, cell samples in 15-cm dishes were harvested and washed by PBS once. Cells were lysed in 2% SDS/PBS by heating at 95° C. for 5 minutes, followed by sonication. Protein concentrations were determined and then subjected to reduction and alkylation using 25 mM DTT at 95° C. for 5 minutes and 50 mM iodoacetamide at room temperature for 1 hour, respectively. Proteins were precipitated using the methanol/chloroform mix (aqueous phase: CH3OH:CHCl3=4:4:1) and resuspended in 1% SDS, 20 mM HEPES (pH 7.9) buffer with a concentration of 3.75 mg/mL. […]
Quantitative chemical proteomics. […]

[2] = tested on: global O-GlcNAc level in MCF-7 cells; assay: Immunoblot of global O-GlcNAc level and splicing in MCF-7 stable cell lines; type: cell-based, human; settings: MCF-7 cells stably expressing the variant
Text: In addition to serving as an activator for intein splicing, 4-HT is also known as the active metabolite of tamoxifen, an FDA-approved drug for treating breast cancer patients. Breast cancer cells also have elevated OGT expression (39) and decreased levels of OGA (40, 41), resulting in elevated O-GlcNAcylation in the proteome. OGT is usually required for tumor growth and metastasis (39), and low OGA expression is correlated with poor survival in breast cancer patients (FIG. 13). The ER positive breast cancer-derived MCF-7 cell line is sensitive to tamoxifen and 4-HT, resulting in suppression of cell proliferation, yet drug resistance occurs after long-term treatment (42). Previous studies also show evidence that upregulation of O-GlcNAcylation protects MCF-7 cells from tamoxifen-induced cell death (43). To determine if reduction of O-GlcNAc sensitized MCF-7 cells to 4-HT treatment, it was assessed whether 4-HT induced inhibition of breast cancer cell proliferation and OGA-intein activation worked synergistically to accelerate cell death (FIG. 5A). […] Next, these two cell lines were treated with 4-HT at increasing concentrations, and cell viability was measured after 48 hours. […] Given that 4-HT promoted MCF-7 cell death through apoptosis (43), the apoptosis of these cells under 4-HT treatment was further analyzed through flow cytometry analyses following Annexin V and DAPI staining. […]

Nup62 [3] = assay: Spatial deglycosylation of cytoplasmic Nup62 by OGA-intein(C181) variants in HEK293T cells; type: cell-based; settings: cytoplasmic Nup62 co-expressed
Protocol: (§1) Next, it was assessed whether these OGA-intein(C181) variants enable selective spatial deglycosylation in live cells. As O-GlcNAc affects the subcellular localization of many proteins (37), Nup62 was used as a model cytoplasmic substrate, which was previously primarily localized in the cytoplasm when transiently overexpressed in HEK293T cells independent of the O-GlcNAcylation state (13) (FIGS. 11A, 11B). Nup62 was co-expressed with three OGA-intein(C181) variants (C181-WT, C181-NLS, and C181-NES) in HEK293T cells, and Nup62 was enriched for O-GlcNAc measurement. […] Next, Nup62 was localized to the nucleus by attachment to an NLS tag (Nup62-NLS), and a similar coexpression and 4-HT-triggered activation was performed with OGA-intein(C181) variants. […] The fluorescent intensity of OGA-intein variants also show a strong correlation to the localization of Nup62, indicating the desired subcellular distribution (FIGS. 11A-C).
(§2) Immunoprecipitation and Immunoblot assays. […]
(§3) For immunoblotting analysis, proteins were transferred to a nitrocellulose membrane using an iBlot system (Invitrogen). […] Immunoblot images were captured using Azure Imager C600 and analyzed with Fiji ImageJ for converting all IR fluorescence western blot images to grayscale images.

Nup62 [4] = assay: Screen of intein insertion sites: OGA-intein variants co-expressed with Nup62 in HEK293T cells, immunoblot; type: cell-based
Text: OGA is a multi-domain hydrolase responsible for O-GlcNAc removal in mammalian cells. Based on the reported crystal structures of OGA (27-29), the essential domains of the long splice variant of OGA were identified, and it was confirmed that the HAT domain is not required for its deglycosidase activity in cells (13). In addition, replacement of the disordered region between the catalytic domain and the stalk domain with a glycine-serine flexible linker (GS-linker) maintained its activity in live cells in the absence of the C-terminal HAT domain (13, 28). This variant, termed miniOGA, was selected as the initial template for engineering with an intein due to its smaller size and simpler structure (FIG. 2A). […] Inserting this evolved 4-HT-responsive intein into a site that abolishes miniOGA activity until protein splicing has taken place could result in a conditionally active OGA for O-GlcNAc removal under the control of 4-HT. As intein splicing would leave behind a single cysteine residue (22), and to minimize alterations on OGA protein sequence, cysteine residues across different structural domains and the GS-linker at miniOGA were selected as the candidate insertion sites, thus generating OGA-intein fusion constructs for nine positions in total (C62, C166, C181, C220, C316, C596, C631, C663, and the GS-linker) (FIG. 2A). The nine OGA-intein variants were transiently expressed in HEK293T cells together with a model glycoprotein Nup62. Cells were treated with or without 1 μM 4-HT for 24 hours after transfection. OGA-intein variants were then detected by the Myc tag to verify the expected splicing, and their enzymatic activities were evaluated by detection of O-GlcNAc on the substrate Nup62 following immunoprecipitation.
as §2, §3

Nup62-NLS = assay: Spatial deglycosylation of nuclear Nup62-NLS by OGA-intein(C181) variants in HEK293T cells; type: cell-based; settings: nuclear Nup62-NLS co-expressed
Protocol: as §1, §2, §3

| Molecule | change of O-GlcNAc on nuclear and cytoplasmic proteins [1] | global O-GlcNAc level after adding 4-HT [2] | removal of O-GlcNAc from Nup62 after 4-HT-triggered activation (Nup62 [3]) | intein splicing / spliced product on 4-HT treatment (Nup62 [4]; 1 μM 4-HT for 24 hours, Myc tag detection) | deglycosylation activity in the presence of 4-HT (Nup62 [4]; co-expressed Nup62, 1 μM 4-HT for 24 hours) | OGA activity (deglycosylation of Nup62) in the absence of 4-HT (Nup62 [4]; co-expressed Nup62, without 4-HT) | 4-HT-induced deglycosylation of Nup62-NLS (Nup62-NLS) |
| --- | --- | --- | --- | --- | --- | --- | --- |
| CCOC(=O)CN(Cc1cccs1)C(=O)[C@H](NS(=O)(=O)c1cc2ccc(=O)[nH]c2cc1Cl)c1ccccc1OC [OSMI-4b] | mild reduction of O-GlcNAc on both nuclear and cytoplasmic proteins | – | – | – | – | – | – |
| B1 | – | decreased global O-GlcNAc level | removed O-GlcNAc from Nup62 | yielding the active spliced product | high deglycosylation activity | little activity | 4-HT-induced deglycosylation |
